Laboratory results: article PMC11077047, “Activation of zinc uptake regulator by zinc binding to three regulatory sites”

How the values were obtained:
[1] = target: T1, Zur H36A H36A (Streptomyces coelicolor) (UniProt Q9L2H5); experiment: DNase I footprinting; conditions: ITC: 20 mM HEPES pH 7.8, 150 mM NaCl, 0.5 mM TCEP, 25 C. EMSA: 20 mM Tris-HCl pH 7.8, 150 mM NaCl, 5 mM DTT, 0.1 mg/ml BSA, 5% glycerol, 0.1 ug poly(dI-dC) per …
T1 sequence: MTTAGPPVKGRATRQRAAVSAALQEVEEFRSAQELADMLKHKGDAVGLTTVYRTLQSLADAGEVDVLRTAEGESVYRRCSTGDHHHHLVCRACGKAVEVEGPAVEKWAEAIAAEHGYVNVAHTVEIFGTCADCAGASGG

[2] = target: T2, Zur (ScZur) wild type (Streptomyces coelicolor) (UniProt Q9L2H5); experiment: DNase I footprinting; conditions: ITC: 20 mM HEPES pH 7.8, 150 mM NaCl, 0.5 mM TCEP, 25 C. EMSA: 20 mM Tris-HCl pH 7.8, 150 mM NaCl, 5 mM DTT, 0.1 mg/ml BSA, 5% glycerol, 0.1 ug poly(dI-dC) per …
T2 sequence: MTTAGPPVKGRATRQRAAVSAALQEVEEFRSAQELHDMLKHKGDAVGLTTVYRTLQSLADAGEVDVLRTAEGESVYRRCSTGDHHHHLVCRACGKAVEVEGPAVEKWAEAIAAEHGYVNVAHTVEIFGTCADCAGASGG

Zur H36A [3] = target: T3, Zur H36A (Streptomyces coelicolor, UniProt Q9L2H5 1-139, H36A); experiment: ITC; 4.0 eq Zn2+ per Zur dimer; N=2.0 dimers per DNA; K=3.3e5 M-1; ITC: 20 mM HEPES pH 7.8, 150 mM NaCl, 0.5 mM TCEP, 25 C. EMSA: 20 mM Tris-HCl pH 7.8, 150 mM NaCl, 5 mM DTT, 0.1 mg/ml BSA, 5% glycerol, 0.1 ug poly(dI-dC) per; conditions: protein: recombinant; chain copies: 2; label: 6-FAM in EMSA; blunt
T3 sequence: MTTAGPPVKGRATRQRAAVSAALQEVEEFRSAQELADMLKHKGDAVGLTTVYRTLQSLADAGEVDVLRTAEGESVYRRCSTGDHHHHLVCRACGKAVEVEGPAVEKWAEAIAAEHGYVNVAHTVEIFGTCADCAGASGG

Zur (ScZur) wild type [4] = target: T4, Zur (ScZur) wild type (Streptomyces coelicolor, UniProt Q9L2H5 1-139); experiment: ITC; 4.0 eq Zn2+ per Zur dimer; N=2.1 dimers per DNA; K=8.7e5 M-1; ITC: 20 mM HEPES pH 7.8, 150 mM NaCl, 0.5 mM TCEP, 25 C. EMSA: 20 mM Tris-HCl pH 7.8, 150 mM NaCl, 5 mM DTT, 0.1 mg/ml BSA, 5% glycerol, 0.1 ug poly(dI-dC) per; conditions: protein: recombinant; chain copies: 2; label: 6-FAM in EMSA; blunt
T4 sequence: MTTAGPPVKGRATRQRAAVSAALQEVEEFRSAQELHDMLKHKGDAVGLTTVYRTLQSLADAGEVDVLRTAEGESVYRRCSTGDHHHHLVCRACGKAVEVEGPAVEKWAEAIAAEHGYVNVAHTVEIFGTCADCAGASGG

Zur H36A [5] = target: T3, Zur H36A; experiment: ITC; 4.0 eq Zn2+ per Zur dimer; N=3.1 dimers per DNA; K=2.6e5 M-1; ITC: 20 mM HEPES pH 7.8, 150 mM NaCl, 0.5 mM TCEP, 25 C. EMSA: 20 mM Tris-HCl pH 7.8, 150 mM NaCl, 5 mM DTT, 0.1 mg/ml BSA, 5% glycerol, 0.1 ug poly(dI-dC) per; conditions: protein: recombinant; chain copies: 2; label: 6-FAM in EMSA; blunt
Zur (ScZur) wild type [6] = target: T4, Zur (ScZur) wild type; experiment: ITC; 4.0 eq Zn2+ per Zur dimer; N=3.1 dimers per DNA; K=1.8e6 M-1; ITC: 20 mM HEPES pH 7.8, 150 mM NaCl, 0.5 mM TCEP, 25 C. EMSA: 20 mM Tris-HCl pH 7.8, 150 mM NaCl, 5 mM DTT, 0.1 mg/ml BSA, 5% glycerol, 0.1 ug poly(dI-dC) per; conditions: protein: recombinant; chain copies: 2; label: 6-FAM in EMSA; blunt
Zur (ScZur) wild type [7] = target: T4, Zur (ScZur) wild type; experiment: EMSA; 400 nM Zur, 0-5 uM zinc; saturating state switched (tetramer); ITC: 20 mM HEPES pH 7.8, 150 mM NaCl, 0.5 mM TCEP, 25 C. EMSA: 20 mM Tris-HCl pH 7.8, 150 mM NaCl, 5 mM DTT, 0.1 mg/ml BSA, 5% glycerol, 0.1 ug poly(dI-dC) per; conditions: protein: recombinant; chain copies: 2; label: 6-FAM; blunt
Zur (ScZur) wild type [8] = target: T4, Zur (ScZur) wild type; experiment: EMSA; 400 nM Zur, 0-5 uM zinc; saturating state switched (hexamer); ITC: 20 mM HEPES pH 7.8, 150 mM NaCl, 0.5 mM TCEP, 25 C. EMSA: 20 mM Tris-HCl pH 7.8, 150 mM NaCl, 5 mM DTT, 0.1 mg/ml BSA, 5% glycerol, 0.1 ug poly(dI-dC) per; conditions: protein: recombinant; chain copies: 2; label: 6-FAM; blunt

Question: What does the source list for “CTCCTCGTGTGTACCGGCGTCCGGCGACCCGGCGCCCGGATGCCAGTCAACTACGGGTAGGGGGTATCGGGCAACGCGGCACTGAACACCGTTGTCATGTGCCTTGACCTGCGGAAACGTTTCGCAGGTCAGAGTGTTGCGAGGATGCGGAGGGTGCGGCTTCCGCCGTCAGGGGGACCGGTCCGACGGGGCTCGTCCTGACCCTGTGCGAACAACGGCGGACACTGTGCGATGTCCGCGATGCCCGGTCTGGGGGCGCGGTTTGTC (double strand) [zitB promoter 267 bp footprinting probe]”?
Answer: binding [1]: binds more weakly; binding [2]: binds

B1: znuA 33 bp (zurbox site 1) (dsDNA)
DNA 1: TCCGCTTGTTGACAACGGTTTCCATATTTGTTG
DNA 2: CAACAAATATGGAAACCGTTGTCAACAAGCGGA
Question: With B1 as the molecule, how does the Kd (Zur H36A [3]) read?
Answer: 3000 ± 900 nM

Question: And the Kd (Zur (ScZur) wild type [4])?
Answer: 1200 ± 200 nM

B2: zitB 33 bp (dsDNA)
DNA 1: CAAGGCACATGACAACGGTGTTCAGTGCCGCGT
DNA 2: ACGCGGCACTGAACACCGTTGTCATGTGCCTTG
Question: With B2 as the molecule, how does the Kd (Zur H36A [5]) read?
Answer: 3900 ± 1000 nM

Question: And the Kd (Zur (ScZur) wild type [6])?
Answer: 600 ± 100 nM

B3: zitB zurbox with znuA flanks (4 nt each) (dsDNA)
DNA 1: CAAGGTTGTTGACAACGGTGTTCATATTCGCGT
DNA 2: ACGCGAATATGAACACCGTTGTCAACAACCTTG
Question: Does B3 bind (Zur (ScZur) wild type [7])?
Answer: binds

B4: znuA zurbox with zitB flanks (4 nt each) (dsDNA)
DNA 1: TCCGCCACATGACAACGGTTTCCAGTGCTGTTG
DNA 2: CAACAGCACTGGAAACCGTTGTCATGTGGCGGA
Question: Does B4 bind (Zur (ScZur) wild type [8])?
Answer: binds
